Test results from article PMC9482650, “Quantitative fragmentomics allow affinity mapping of interactomes” (Nature Communications, 2022).

T1: GRIP1_1, Q9Y3R0
T1 sequence (Q9Y3R0 48-146, limits assumed, looked up): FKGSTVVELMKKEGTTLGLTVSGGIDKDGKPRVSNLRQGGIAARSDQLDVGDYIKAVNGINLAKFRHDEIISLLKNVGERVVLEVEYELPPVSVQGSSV

T2: PDZD2_5, O15018
T2 sequence (O15018 2617-2716, limits assumed, looked up): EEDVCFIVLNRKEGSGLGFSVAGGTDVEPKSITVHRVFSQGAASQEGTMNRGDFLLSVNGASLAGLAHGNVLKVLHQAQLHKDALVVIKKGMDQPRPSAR

T3: MPDZ_6, O75970
T3 sequence (O75970 1003-1099, limits assumed, looked up): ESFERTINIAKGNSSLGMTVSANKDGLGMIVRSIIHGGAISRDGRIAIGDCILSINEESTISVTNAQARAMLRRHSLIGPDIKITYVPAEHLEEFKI

T4: MPDZ_13, O75970
T4 sequence (O75970 1982-2070, limits assumed, looked up): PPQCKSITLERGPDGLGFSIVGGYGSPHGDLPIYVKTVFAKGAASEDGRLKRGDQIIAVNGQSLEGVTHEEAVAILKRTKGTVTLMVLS

T5: SNTB2, Q13425
T5 sequence (Q13425 110-208, limits assumed, looked up): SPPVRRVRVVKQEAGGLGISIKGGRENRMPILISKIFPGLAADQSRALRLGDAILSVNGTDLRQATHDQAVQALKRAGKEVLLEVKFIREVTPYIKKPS

T6: DVL1, O14640
T6 sequence (O14640 246-333, limits assumed, looked up): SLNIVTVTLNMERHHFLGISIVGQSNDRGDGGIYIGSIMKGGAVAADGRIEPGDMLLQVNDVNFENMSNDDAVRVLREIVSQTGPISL

T7: SHANK3, Q9BYB0
T7 sequence (Q9BYB0 641-750, limits assumed, looked up): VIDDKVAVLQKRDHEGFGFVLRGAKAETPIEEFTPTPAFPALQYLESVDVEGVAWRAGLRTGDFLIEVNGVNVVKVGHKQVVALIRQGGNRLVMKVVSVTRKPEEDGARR

T8: PDZD2_4, O15018
T8 sequence (O15018 723-823, limits assumed, looked up): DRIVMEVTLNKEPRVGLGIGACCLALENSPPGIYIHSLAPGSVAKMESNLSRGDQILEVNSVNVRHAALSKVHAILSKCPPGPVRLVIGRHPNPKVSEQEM

T9: NHERF1_1, O14745
T9 sequence (O14745 9-104, limits assumed, looked up): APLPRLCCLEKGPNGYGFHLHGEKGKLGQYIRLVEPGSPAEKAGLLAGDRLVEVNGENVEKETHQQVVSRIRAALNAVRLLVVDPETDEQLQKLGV

T10: PDLIM3, Q53GG5
T10 sequence (Q53GG5 1-94, limits assumed, looked up): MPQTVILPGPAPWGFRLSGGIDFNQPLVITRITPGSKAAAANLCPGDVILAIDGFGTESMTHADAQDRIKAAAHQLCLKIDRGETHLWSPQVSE

T11: LNX2_4, Q8N448
T11 sequence (Q8N448 595-690, limits assumed, looked up): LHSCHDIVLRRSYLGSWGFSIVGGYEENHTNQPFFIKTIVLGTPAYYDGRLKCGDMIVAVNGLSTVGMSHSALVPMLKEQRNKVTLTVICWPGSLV

T12: PDZD2_1, O15018
T12 sequence (O15018 80-192, limits assumed, looked up): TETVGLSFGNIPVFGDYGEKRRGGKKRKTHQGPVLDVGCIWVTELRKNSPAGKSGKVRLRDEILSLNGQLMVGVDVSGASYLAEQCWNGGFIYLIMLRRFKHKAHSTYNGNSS

T13: PDZD4, Q76G19
T13 sequence (Q76G19 125-224, limits assumed, looked up): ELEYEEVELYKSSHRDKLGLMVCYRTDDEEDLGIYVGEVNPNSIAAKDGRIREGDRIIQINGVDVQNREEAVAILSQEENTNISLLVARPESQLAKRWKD

T14: TJP3_1, O95049
T14 sequence (O95049 6-103, limits assumed, looked up): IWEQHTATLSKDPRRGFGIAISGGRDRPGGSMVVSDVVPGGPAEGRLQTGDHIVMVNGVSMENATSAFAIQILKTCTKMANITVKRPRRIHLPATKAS


molecular target: T1, GRIP1_1, Q9Y3R0; assay: holdup assay; design: key: below the threshold = too weak to quantify, mostly under pKd 3.1 to 4; settings: plain residues with an end cap or a label only (N-terminal biotin on a linker: ttds)

| Binder | pKd |
| --- | --- |
| SGGKRKETLV [NET1, Q7Z628] | below the threshold |
| SSIDLWETAL [SLC15A5, A6NIM6] | below the threshold |

molecular target: PARD3B_3, Q8TEW8; assay: holdup assay; design: key: below the threshold = too weak to quantify, mostly under pKd 3.1 to 4; settings: plain residues with an end cap or a label only (N-terminal biotin on a linker: ttds)
Sequence (Q8TEW8 490-594): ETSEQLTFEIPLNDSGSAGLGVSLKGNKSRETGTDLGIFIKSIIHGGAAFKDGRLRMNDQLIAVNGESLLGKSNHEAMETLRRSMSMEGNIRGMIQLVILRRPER

| Binder | pKd |
| --- | --- |
| SGGKRKETLV [NET1, Q7Z628] | below the threshold |
| SSIDLWETAL [SLC15A5, A6NIM6] | below the threshold |

molecular target: T2, PDZD2_5, O15018; assay: holdup assay; design: key: below the threshold = too weak to quantify, mostly under pKd 3.1 to 4; settings: plain residues with an end cap or a label only (N-terminal biotin on a linker: ttds)

| Binder | pKd |
| --- | --- |
| SGGKRKETLV [NET1, Q7Z628] | below the threshold |
| SSIDLWETAL [SLC15A5, A6NIM6] | below the threshold |

molecular target: RGS3, P49796-9; assay: holdup assay; design: key: below the threshold = too weak to quantify, mostly under pKd 3.1 to 4; settings: plain residues with an end cap or a label only (N-terminal biotin on a linker: ttds)
Sequence (P49796 other isoform, or with tags, fused parts or gaps): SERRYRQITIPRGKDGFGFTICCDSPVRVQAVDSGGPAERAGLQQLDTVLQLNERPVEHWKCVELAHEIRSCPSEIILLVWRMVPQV

| Binder | pKd |
| --- | --- |
| SGGKRKETLV [NET1, Q7Z628] | below the threshold |
| SSIDLWETAL [SLC15A5, A6NIM6] | below the threshold |

molecular target: T3, MPDZ_6, O75970; assay: holdup assay; design: key: below the threshold = too weak to quantify, mostly under pKd 3.1 to 4; settings: plain residues with an end cap or a label only (N-terminal biotin on a linker: ttds)

| Binder | pKd |
| --- | --- |
| SGGKRKETLV [NET1, Q7Z628] | below the threshold |
| SSIDLWETAL [SLC15A5, A6NIM6] | below the threshold |

molecular target: T4, MPDZ_13, O75970; assay: holdup assay; design: key: below the threshold = too weak to quantify, mostly under pKd 3.1 to 4; settings: plain residues with an end cap or a label only (N-terminal biotin on a linker: ttds)

| Binder | pKd |
| --- | --- |
| SGGKRKETLV [NET1, Q7Z628] | 3.75 |
| SSIDLWETAL [SLC15A5, A6NIM6] | below the threshold |

molecular target: MAGIX, Q9H6Y5; assay: holdup assay; design: key: below the threshold = too weak to quantify, mostly under pKd 3.1 to 4; settings: plain residues with an end cap or a label only (N-terminal biotin on a linker: ttds)
Sequence (Q9H6Y5 118-211): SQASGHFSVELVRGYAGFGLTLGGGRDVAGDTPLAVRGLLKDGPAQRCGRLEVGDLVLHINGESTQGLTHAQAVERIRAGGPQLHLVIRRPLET

| Binder | pKd |
| --- | --- |
| SGGKRKETLV [NET1, Q7Z628] | below the threshold |
| SSIDLWETAL [SLC15A5, A6NIM6] | below the threshold |

molecular target: IL16_2, Q14005; assay: holdup assay; design: key: below the threshold = too weak to quantify, mostly under pKd 3.1 to 4; settings: plain residues with an end cap or a label only (N-terminal biotin on a linker: ttds)
Sequence (Q14005 350-450): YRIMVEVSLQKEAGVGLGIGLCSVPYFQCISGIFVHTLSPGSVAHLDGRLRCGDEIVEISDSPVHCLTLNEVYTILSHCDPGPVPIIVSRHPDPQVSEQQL

| Binder | pKd |
| --- | --- |
| SGGKRKETLV [NET1, Q7Z628] | below the threshold |
| SSIDLWETAL [SLC15A5, A6NIM6] | below the threshold |

molecular target: T5, SNTB2, Q13425; assay: holdup assay; design: key: below the threshold = too weak to quantify, mostly under pKd 3.1 to 4; settings: plain residues with an end cap or a label only (N-terminal biotin on a linker: ttds)

| Binder | pKd |
| --- | --- |
| SSIDLWETAL [SLC15A5, A6NIM6] | 5.54 |

molecular target: T6, DVL1, O14640; assay: holdup assay; design: key: below the threshold = too weak to quantify, mostly under pKd 3.1 to 4; settings: plain residues with an end cap or a label only (N-terminal biotin on a linker: ttds)

| Binder | pKd |
| --- | --- |
| SGGKRKETLV [NET1, Q7Z628] | below the threshold |
| SSIDLWETAL [SLC15A5, A6NIM6] | below the threshold |

molecular target: T7, SHANK3, Q9BYB0; assay: holdup assay; design: key: below the threshold = too weak to quantify, mostly under pKd 3.1 to 4; settings: plain residues with an end cap or a label only (N-terminal biotin on a linker: ttds)

| Binder | pKd |
| --- | --- |
| SGGKRKETLV [NET1, Q7Z628] | below the threshold |
| SSIDLWETAL [SLC15A5, A6NIM6] | 6.63 |

molecular target: T8, PDZD2_4, O15018; assay: holdup assay; design: key: below the threshold = too weak to quantify, mostly under pKd 3.1 to 4; settings: plain residues with an end cap or a label only (N-terminal biotin on a linker: ttds)

| Binder | pKd |
| --- | --- |
| SGGKRKETLV [NET1, Q7Z628] | below the threshold |
| SSIDLWETAL [SLC15A5, A6NIM6] | below the threshold |

molecular target: T9, NHERF1_1, O14745; assay: holdup assay; design: key: below the threshold = too weak to quantify, mostly under pKd 3.1 to 4; settings: plain residues with an end cap or a label only (N-terminal biotin on a linker: ttds)

| Binder | pKd |
| --- | --- |
| SGGKRKETLV [NET1, Q7Z628] | below the threshold |
| SSIDLWETAL [SLC15A5, A6NIM6] | below the threshold |

molecular target: T10, PDLIM3, Q53GG5; assay: holdup assay; design: key: below the threshold = too weak to quantify, mostly under pKd 3.1 to 4; settings: plain residues with an end cap or a label only (N-terminal biotin on a linker: ttds)

| Binder | pKd |
| --- | --- |
| SGGKRKETLV [NET1, Q7Z628] | below the threshold |
| SSIDLWETAL [SLC15A5, A6NIM6] | below the threshold |

molecular target: TJP1_1, Q07157; assay: holdup assay; design: key: below the threshold = too weak to quantify, mostly under pKd 3.1 to 4; settings: plain residues with an end cap or a label only (N-terminal biotin on a linker: ttds)
Sequence (Q07157 18-120): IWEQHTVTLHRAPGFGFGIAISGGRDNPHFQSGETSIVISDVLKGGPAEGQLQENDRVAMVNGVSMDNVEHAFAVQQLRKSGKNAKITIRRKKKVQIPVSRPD

| Binder | pKd |
| --- | --- |
| SGGKRKETLV [NET1, Q7Z628] | 3.89 |
| SSIDLWETAL [SLC15A5, A6NIM6] | below the threshold |

molecular target: T11, LNX2_4, Q8N448; assay: holdup assay; design: key: below the threshold = too weak to quantify, mostly under pKd 3.1 to 4; settings: plain residues with an end cap or a label only (N-terminal biotin on a linker: ttds)

| Binder | pKd |
| --- | --- |
| SSIDLWETAL [SLC15A5, A6NIM6] | 5.03 |

molecular target: T12, PDZD2_1, O15018; assay: holdup assay; design: key: below the threshold = too weak to quantify, mostly under pKd 3.1 to 4; settings: plain residues with an end cap or a label only (N-terminal biotin on a linker: ttds)

| Binder | pKd |
| --- | --- |
| SGGKRKETLV [NET1, Q7Z628] | below the threshold |
| SSIDLWETAL [SLC15A5, A6NIM6] | below the threshold |

molecular target: NHERF2_1, Q15599; assay: holdup assay; design: key: below the threshold = too weak to quantify, mostly under pKd 3.1 to 4; settings: plain residues with an end cap or a label only (N-terminal biotin on a linker: ttds)
Sequence (Q15599 9-91): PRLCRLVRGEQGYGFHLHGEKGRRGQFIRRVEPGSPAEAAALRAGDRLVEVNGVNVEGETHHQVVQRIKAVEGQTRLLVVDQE

| Binder | pKd |
| --- | --- |
| SGGKRKETLV [NET1, Q7Z628] | below the threshold |
| SSIDLWETAL [SLC15A5, A6NIM6] | 4.68 |

molecular target: T13, PDZD4, Q76G19; assay: holdup assay; design: key: below the threshold = too weak to quantify, mostly under pKd 3.1 to 4; settings: plain residues with an end cap or a label only (N-terminal biotin on a linker: ttds)

| Binder | pKd |
| --- | --- |
| SGGKRKETLV [NET1, Q7Z628] | 3.72 |
| SSIDLWETAL [SLC15A5, A6NIM6] | below the threshold |

molecular target: RIMS2, Q9UQ26; assay: holdup assay; design: key: below the threshold = too weak to quantify, mostly under pKd 3.1 to 4; settings: plain residues with an end cap or a label only (N-terminal biotin on a linker: ttds)
Sequence (Q9UQ26 637-758): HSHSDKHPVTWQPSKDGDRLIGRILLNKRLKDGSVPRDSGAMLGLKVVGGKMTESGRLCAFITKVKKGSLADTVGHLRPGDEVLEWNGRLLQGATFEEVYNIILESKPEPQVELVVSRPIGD

| Binder | pKd |
| --- | --- |
| SGGKRKETLV [NET1, Q7Z628] | below the threshold |
| SSIDLWETAL [SLC15A5, A6NIM6] | below the threshold |

molecular target: DVL2, O14641; assay: holdup assay; design: key: below the threshold = too weak to quantify, mostly under pKd 3.1 to 4; settings: plain residues with an end cap or a label only (N-terminal biotin on a linker: ttds)
Sequence (O14641 260-359): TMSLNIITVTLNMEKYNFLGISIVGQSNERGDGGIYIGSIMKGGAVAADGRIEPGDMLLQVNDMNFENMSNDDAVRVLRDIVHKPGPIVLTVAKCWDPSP

| Binder | pKd |
| --- | --- |
| SGGKRKETLV [NET1, Q7Z628] | below the threshold |
| SSIDLWETAL [SLC15A5, A6NIM6] | below the threshold |

molecular target: MAGI3_3, Q5TCQ9; assay: holdup assay; design: key: below the threshold = too weak to quantify, mostly under pKd 3.1 to 4; settings: plain residues with an end cap or a label only (N-terminal biotin on a linker: ttds)
Sequence (Q5TCQ9 572-655): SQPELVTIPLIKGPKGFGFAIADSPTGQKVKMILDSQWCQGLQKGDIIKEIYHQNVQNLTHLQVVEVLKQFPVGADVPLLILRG

| Binder | pKd |
| --- | --- |
| SGGKRKETLV [NET1, Q7Z628] | below the threshold |
| SSIDLWETAL [SLC15A5, A6NIM6] | below the threshold |

molecular target: T14, TJP3_1, O95049; assay: holdup assay; design: key: below the threshold = too weak to quantify, mostly under pKd 3.1 to 4; settings: plain residues with an end cap or a label only (N-terminal biotin on a linker: ttds)

| Binder | pKd |
| --- | --- |
| SGGKRKETLV [NET1, Q7Z628] | below the threshold |
| SSIDLWETAL [SLC15A5, A6NIM6] | below the threshold |
